Source: IntAct's records for PubMed 25910212

B1: EF-hand domain-containing protein 1 (Homo sapiens), Q5JVL4 (parent)
chain: MVSNPVHGLPFLPGTSFKDSTKTAFHRSQTLSYRNGYAIVRRPTVGIGGDRLQFNQLSQAELDELASKAPVLTYGQPKQAPPADFIPAHVAFDKKVLKFDAYFQEDVPMSTEEQYRIRQVNIYYYLEDDSMSVIEPVVENSGILQGKLIKRQRLAKNDRGDHYHWKDLNRGINITIYGKTFRVVDCDQFTQVFLESQGIELNPPEKMALDPYTELRKQPLRKYVTPSDFDQLKQFLTFDKQVLRFYAIWDDTDSMYGECRTYIIHYYLMDDTVEIREVHERNDGRDPFPLLMNRQRVPKVLVENAKNFPQCVLEISDQEVLEWYTAKDFIVGKSLTILGRTFFIYDCDPFTRRYYKEKFGITDLPRIDVSKREPPPVKQELPPYNGFGLVEDSAQNCFALIPKAPKKDVIKMLVNDNKVLRYLAVLESPIPEDKDRRFVFSYFLATDMISIFEPPVRNSGIIGGKYLGRTKVVKPYSTVDNPVYYGPSDFFIGAVIEVFGHRFIILDTDEYVLKYMESNAAQYSPEALASIQNHVRKREAPAPEAESKQTEKDPGVQELEALIDTIQKQLKDHSCKDNIREAFQIYDKEASGYVDRDMFFKICESLNVPVDDSLVKELIRMCSHGEGKINYYNFVRAFSN
partner: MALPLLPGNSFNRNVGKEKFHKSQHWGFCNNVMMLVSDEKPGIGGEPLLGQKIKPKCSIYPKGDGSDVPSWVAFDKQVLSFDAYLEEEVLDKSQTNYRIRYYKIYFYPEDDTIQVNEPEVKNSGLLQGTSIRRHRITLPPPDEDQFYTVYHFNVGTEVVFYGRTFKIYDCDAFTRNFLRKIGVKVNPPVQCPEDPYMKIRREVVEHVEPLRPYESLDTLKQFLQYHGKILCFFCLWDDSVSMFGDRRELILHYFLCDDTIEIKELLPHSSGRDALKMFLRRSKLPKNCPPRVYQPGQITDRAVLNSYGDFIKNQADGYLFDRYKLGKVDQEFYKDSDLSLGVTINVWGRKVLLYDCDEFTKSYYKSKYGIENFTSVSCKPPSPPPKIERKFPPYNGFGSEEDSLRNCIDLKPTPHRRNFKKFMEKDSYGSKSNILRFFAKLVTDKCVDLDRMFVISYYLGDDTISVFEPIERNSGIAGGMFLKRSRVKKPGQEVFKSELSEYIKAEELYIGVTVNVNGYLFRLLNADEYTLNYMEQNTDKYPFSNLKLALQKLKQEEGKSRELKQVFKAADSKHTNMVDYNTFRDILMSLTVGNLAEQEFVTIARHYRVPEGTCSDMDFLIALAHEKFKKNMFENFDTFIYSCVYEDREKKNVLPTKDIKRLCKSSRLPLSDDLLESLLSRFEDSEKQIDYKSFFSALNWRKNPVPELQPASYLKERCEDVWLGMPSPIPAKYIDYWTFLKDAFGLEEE
B2: Sodium/myo-inositol cotransporter 2 (Homo sapiens), Q8WWX8-3 (parent)
chain: MVWWPVGASLFASNVGSGHFIGLAGSGAATGISVSAYELNGLFSVLMLAWIFLPIYIAGQVTTMPEYLRKRFGGIRIPIILAVLYLFIYIFTKISVDMYAGAIFIQQSLHLDLYLAIVGLLAITAVYTVAGGLAAVIYTDALQTLIMLIGALTLMGYSFAAVGGMEGLKEKYFLALASNRSENSSCGLPREDAFHIFRDPLTSDLPWPGVLFGMSIPSLWYWCTDQVIVQRTLAAKNLSHAKGGALMAAYLKVLPLFIMVFPGMVSRILFPDQVACADPEICQKICSNPSGCSDIAYPKLVLELLPTGLRGLMMAVMVAALMSSLTSIFNSASTIFTMDLWNHLRPRASEKELMIVGRVFVLLLVLVSILWIPVVQASQGGQLFIYIQSISSYLQPPVAVVFIMGCFWKRTNEKGAFWGLISGLLLGLVRLVLDFIYVQPRCDQPDERPVLVKSIHYLYFSMILSTVTLITVSTVSWFTEPPSKEMVSHLTWFTRHDPVVQKEQAPPAAPLSLTLSQNGMPEASSSSSVQFEMVQENTSKTHSCDMTPKQSKVVKAILWLCGIQEKGKEELPARAEAIIVSLEENPLVKTLLDVNLIFCVSCAIFIWGYFA
B3: Carbonic anhydrase-related protein (Homo sapiens), P35219 (parent)
chain: MADLSFIEDTVAFPEKEEDEEEEEEGVEWGYEEGVEWGLVFPDANGEYQSPINLNSREARYDPSLLDVRLSPNYVVCRDCEVTNDGHTIQVILKSKSVLSGGPLPQGHEFELYEVRFHWGRENQRGSEHTVNFKAFPMELHLIHWNSTLFGSIDEAVGKPHGIAIIALFVQIGKEHVGLKAVTEILQDIQYKGKSKTIPCFNPNTLLPDPLLRDYWVYEGSLTIPPCSEGVTWILFRYPLTISQLQIEEFRRLRTHVKGAELVEGCDGILGDNFRPTQPLSDRVIRAAFQ
partner: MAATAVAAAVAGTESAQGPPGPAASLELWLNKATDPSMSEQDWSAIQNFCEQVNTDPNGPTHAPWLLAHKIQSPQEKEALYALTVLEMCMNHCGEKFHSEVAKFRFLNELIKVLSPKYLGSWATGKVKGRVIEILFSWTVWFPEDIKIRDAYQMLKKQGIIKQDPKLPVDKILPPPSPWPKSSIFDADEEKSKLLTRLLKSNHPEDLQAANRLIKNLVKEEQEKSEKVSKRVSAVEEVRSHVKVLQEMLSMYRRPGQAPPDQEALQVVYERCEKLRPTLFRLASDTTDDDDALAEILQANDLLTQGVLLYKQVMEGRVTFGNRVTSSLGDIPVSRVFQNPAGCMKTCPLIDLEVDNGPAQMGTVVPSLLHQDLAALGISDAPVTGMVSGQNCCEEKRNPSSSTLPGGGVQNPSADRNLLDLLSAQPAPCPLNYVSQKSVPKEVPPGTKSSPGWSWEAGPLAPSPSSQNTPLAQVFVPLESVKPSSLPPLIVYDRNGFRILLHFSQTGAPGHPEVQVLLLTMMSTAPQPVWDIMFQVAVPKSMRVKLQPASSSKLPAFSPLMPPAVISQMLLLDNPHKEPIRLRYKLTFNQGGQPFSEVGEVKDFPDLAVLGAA
B4: U4/U6 small nuclear ribonucleoprotein Prp31 (Homo sapiens), Q8WWY3 (parent)
chain: MSLADELLADLEEAAEEEEGGSYGEEEEEPAIEDVQEETQLDLSGDSVKTIAKLWDSKMFAEIMMKIEEYISKQAKASEVMGPVEAAPEYRVIVDANNLTVEIENELNIIHKFIRDKYSKRFPELESLVPNALDYIRTVKELGNSLDKCKNNENLQQILTNATIMVVSVTASTTQGQQLSEEELERLEEACDMALELNASKHRIYEYVESRMSFIAPNLSIIIGASTAAKIMGVAGGLTNLSKMPACNIMLLGAQRKTLSGFSSTSVLPHTGYIYHSDIVQSLPPDLRRKAARLVAAKCTLAARVDSFHESTEGKVGYELKDEIERKFDKWQEPPPVKQVKPLPAPLDGQRKKRGGRRYRKMKERLGLTEIRKQANRMSFGEIEEDAYQEDLGFSLGHLGKSGSGRVRQTQVNEATKARISKTLQRTLQKQSVVYGGKSTIRDRSSGTASSVAFTPLQGLEIVNPQAAEKKVAEANQKYFSSMAEFLKVKGEKSGLMST
partner: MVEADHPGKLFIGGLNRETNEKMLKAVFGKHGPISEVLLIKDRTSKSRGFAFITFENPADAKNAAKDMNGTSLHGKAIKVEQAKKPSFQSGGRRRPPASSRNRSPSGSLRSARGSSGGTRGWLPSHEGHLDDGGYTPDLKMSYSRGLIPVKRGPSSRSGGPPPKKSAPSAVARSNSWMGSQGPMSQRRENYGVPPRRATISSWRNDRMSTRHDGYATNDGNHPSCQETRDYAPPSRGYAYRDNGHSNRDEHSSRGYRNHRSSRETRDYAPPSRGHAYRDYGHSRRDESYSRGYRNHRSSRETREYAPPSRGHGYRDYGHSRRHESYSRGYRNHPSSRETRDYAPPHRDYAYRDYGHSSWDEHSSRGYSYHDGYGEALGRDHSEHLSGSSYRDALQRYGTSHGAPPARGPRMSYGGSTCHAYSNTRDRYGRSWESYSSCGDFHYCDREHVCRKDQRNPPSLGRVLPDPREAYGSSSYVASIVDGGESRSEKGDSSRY
B5: EF-hand domain-containing protein 1 (Homo sapiens), Q5JVL4 (parent)
chain: B1 chain
partner: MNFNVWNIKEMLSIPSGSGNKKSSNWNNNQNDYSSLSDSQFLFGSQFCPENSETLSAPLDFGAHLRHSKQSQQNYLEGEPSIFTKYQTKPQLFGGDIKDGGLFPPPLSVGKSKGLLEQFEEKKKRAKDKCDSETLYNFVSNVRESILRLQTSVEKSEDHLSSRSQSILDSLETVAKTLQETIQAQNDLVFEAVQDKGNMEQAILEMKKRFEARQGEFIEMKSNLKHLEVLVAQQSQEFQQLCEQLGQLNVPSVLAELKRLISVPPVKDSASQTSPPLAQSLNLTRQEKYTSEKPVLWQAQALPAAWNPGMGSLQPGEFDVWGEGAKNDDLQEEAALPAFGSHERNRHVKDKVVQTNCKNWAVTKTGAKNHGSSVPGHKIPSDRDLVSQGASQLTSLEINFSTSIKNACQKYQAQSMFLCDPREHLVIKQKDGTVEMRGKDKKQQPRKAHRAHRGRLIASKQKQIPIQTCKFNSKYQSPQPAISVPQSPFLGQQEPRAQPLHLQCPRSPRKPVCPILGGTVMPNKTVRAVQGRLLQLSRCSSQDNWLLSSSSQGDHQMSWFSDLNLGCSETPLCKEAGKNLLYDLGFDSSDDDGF

Variants of: B1
Details: with efhc2_human EFHC2, Q5JST6

effect of a mutation on the interaction	Variant
disrupting interaction strength	R221H
disrupting interaction strength	A394S

Variants of: B2
Details: with ima4_human KPNA3, O00505
Sequence of ima4_human KPNA3, O00505 (O00505 whole entry): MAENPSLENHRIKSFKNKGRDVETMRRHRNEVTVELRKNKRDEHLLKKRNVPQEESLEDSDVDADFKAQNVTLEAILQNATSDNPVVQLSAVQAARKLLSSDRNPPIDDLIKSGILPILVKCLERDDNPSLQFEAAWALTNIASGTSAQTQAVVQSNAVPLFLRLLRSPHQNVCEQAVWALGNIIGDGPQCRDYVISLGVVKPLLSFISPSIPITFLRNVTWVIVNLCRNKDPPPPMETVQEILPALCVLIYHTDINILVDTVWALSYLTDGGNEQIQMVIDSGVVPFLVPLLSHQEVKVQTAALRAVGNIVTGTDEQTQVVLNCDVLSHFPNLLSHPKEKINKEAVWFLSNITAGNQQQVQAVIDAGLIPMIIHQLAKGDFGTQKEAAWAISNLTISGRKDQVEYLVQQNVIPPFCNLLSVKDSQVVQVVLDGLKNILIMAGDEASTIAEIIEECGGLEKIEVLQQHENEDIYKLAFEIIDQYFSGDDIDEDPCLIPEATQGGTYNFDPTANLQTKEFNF

effect of a mutation on the interaction	Variant
with no effect	V118A

Variants of: B3
Details: with gga2_human GGA2, Q9UJY4

effect of a mutation on the interaction	Variant
disrupting interaction strength	S100P

Variants of: B4
Details: with rby1f_human RBMY1F

effect of a mutation on the interaction	Variant
with no effect	L107V

Variants of: B5
Details: with iho1_human IHO1, Q8IYA8

Variant	effect of a mutation on the interaction
R159W	with no effect
R221H	disrupting interaction strength
P77T	disrupting interaction strength

The remaining lines, values ahead:

effect of a mutation on the interaction	Variant
with no effect	M448T
disrupting interaction strength	A394S
disrupting interaction strength	T508R
